Target: SNAP-mGluR3 (rat), P31422
Experiment: single-molecule pulldown (SiMPull) with subunit counting by photobleaching steps; surface receptors labelled with BG-LD555 on HEK 293T cells, lysed in 1.2% IGEPAL, diluted in 0.1% IGEPAL, immobilised by biotinylated anti-HA antibody on a PEG-passivated coverslip, TIRF imaging; SNAP labelling efficiency ~80%; background two-step bleaching ~5-10%
Settings: remark: other sources report otherwise

- percent of spots bleaching in two steps: 48.9%
- stoichiometry N: 2
B1: SNAP-mGluR3, P31422 23-879 (receptor)
chain: LGDHNFMRREIKIEGDLVLGGLFPINEKGTGTEECGRINEDRGIQRLEAMLFAIDEINKDNYLLPGVKLGVHILDTCSRDTYALEQSLEFVRASLTKVDEAEYMCPDGSYAIQENIPLLIAGVIGGSYSSVSIQVANLLRLFQIPQISYASTSAKLSDKSRYDYFARTVPPDFYQAKAMAEILRFFNWTYVSTVASEGDYGETGIEAFEQEARLRNICIATAEKVGRSNIRKSYDSVIRELLQKPNARVVVLFMRSDDSRELIAAANRVNASFTWVASDGWGAQESIVKGSEHVAYGAITLELASHPVRQFDRYFQSLNPYNNHRNPWFRDFWEQKFQCSLQNKRNHRQVCDKHLAIDSSNYEQESKIMFVVNAVYAMAHALHKMQRTLCPNTTKLCDAMKILDGKKLYKEYLLKINFTAPFNPNKGADSIVKFDTFGDGMGRYNVFNLQQTGGKYSYLKVGHWAETLSLDVDSIHWSRNSVPTSQCSDPCAPNEMKNMQPGDVCCWICIPCEPYEYLVDEFTCMDCGPGQWPTADLSGCYNLPEDYIKWEDAWAIGPVTIACLGFLCTCIVITVFIKHNNTPLVKASGRELCYILLFGVSLSYCMTFFFIAKPSPVICALRRLGLGTSFAICYSALLTKTNCIARIFDGVKNGAQRPKFISPSSQVFICLGLILVQIVMVSVWLILETPGTRRYTLPEKRETVILKCNVKDSSMLISLTYDVVLVILCTVYAFKTRKCPENFNEAKFIGFTMYTTCIIWLAFLPIFYVTSSDYRVQTTTMCISVSLSGFVVLGCLFAPKVHIVLFQPQKNVVTHRLHLNRFSVSGTATTYSQSSASTYVPTVCNGREVLDSTTSSL
modifications: here or on the partner: SNAP tag labelled with BG-LD555; SNAP tag labelled with BG-LD555

From paper PMC6588349, “Conformational dynamics between transmembrane domains and allosteric modulation of a metabotropic glutamate receptor” (eLife, 2019)
